According to a protein production outcome set (Wang et al. 2014):

Test: label from the status in PepcDB records

Row | Sequence | protein production
1 | MGNLTTILYFAYAPALALLWYFYHQDRLEPEPKRVVIGTFILGGTLSVSVALIVESLLVPRWFPRIPALLPATFLYISLIAGIVEEPAKALAIKYAYNSGHLYGIMDGVVYGVAAGLGFAATENLLYGLGYGVHVTIQRALLTPIGHATWSAIVGVGYGLKAEGKVYTLAPYFTLAVLLHFLWDYYAFMSSISPVYYGIVLLIFTINVLIIRWLIILGRKEDMERFWWYRILGGRRW | failed
2 | MKVFFNKIPLALSSLVLALFSLSNQISQYTLFSQGIWLIAVFGFFLVLGRPIIGYRQTQEDLHNPVIASAFPSFFMAAFLFAGRLPLAQADLSIAWIVVLIGLYIAYIIFFSLRFLRPLVLEQVYPSWFVVYVGPAINLVTIPDSIPNSTKALILGLTGLATLALFPLIFWRMRRLAIPQPVLPILAILAAPLALLITSSIKSGQKPDTILLVGLLIFSQLFFFFALGLFTRLVNKGFVPLFAAFSFPLVNSINAFKAATTSLGLVNPATQLVYKVEFVFVLVIMTYLLYHFLKLLYKALIQALNTKKQAGSV | failed
3 | PEAMLIVDQNGQIVFSNSRCQQLFGYDAKAMLALQIETLLPEELRHLHTGERLDFLREGRDRPMASARHVRALKSDGGEFVAEIALSILPSDFD | failed
4 | MKNNDLTTYGEYLEKLSPKHGREKVFNDFLQIVVCCLSMGRKEELYFKTIKPYDKTELDLFSQAFAALVMQMDRQPLVDPFGDYFQEFLSNAQNGQFFTPFGVCELMNQLITAPKVSDQPKQGDRRVLDPACGSGRLLLSAAQKDRALTFVGIDISYTCCLMTIINLCLNSLNGEVLHMNALTDQYWHRWLIIVDSVTKIPTVYEVEAGIINQPPACADDLKPLPVTGIIQPVKNMIPANFVRYTPKCLEHHHHHH | failed
5 | MKQMNVVLIGGGTGLSVLARGLREFPIDITAIVTVADNGGSTGKIRDVMDIPAPGDIRNVIAALSDSESILTQLFQYRFGENQVDGHSLGNLVIAGMTNITNDFGHAIKELSKVLNIKGQVIPSTNASVQLNAVMEDGEIVHGETNIPKTHKKIDRVFLEPSDVEPMNEAIEALEQADLIVLGPGSLYTSVISNLCVKGISEALLRTSAPKLYVSNVMTQPGETDNYDVKEHIDALTRQVGEPFIDFVICSSESYSKDVLQRYEEKNSKPVAVHKEQLKDSGIRVLTASNLVEISNEHYVRHNTKVLSKMIYELALELTSTIRFTPSDKKK | not failed
6 | PIIFVPGIMGSRLKFAKGKKQGTRAWDPDSSGFMFLNYGRFDVSAKKKKALLVGPEFDPDYLEVDTNNPKLDKSFLRRYPRADKRGWGGVMWGSYGPILRALHDHQWEEPVGHCFEFPVHAFGYNWTASNMEAGRKLKEYIGATIDHYAKGLRDEAGRPLERLCTRVILVTHSMGGLVARSACVLHGAAEKVLGVVHGVQPATGSPAAYWRMK | failed
7 | MLFSSIVFLFYFFPAVLLLYYICSFSRRLQNVVLLFASLVFYAWGDFSFLGIMIVSIIINYILGLLVGKFREKKLLAKFFIFVTCAYNLGMLFVFKYLGFVVKNIDKVGNYKLSIPNIALPIGISYFTFKAISYVVDVYKNKVEAEKNPLNIGLYIAFFPEVISGPISRYVKVGEQIKNREHSWQKFSVGACRFITGLGKKVLISNSVSIIADKVFTMNTNGPVPVTLAWLGSIAYTIQIFFDFSGYSDMVIGLGLMFGFKIDENFNYPYISKSITEFWRRWHISLSSWFRDYIYIPLGGSRVDNKDKLIRNLFIVWVSTGVWHGAEWTFIMWGFLNFVFIALEKVFSFDDLKINPVIKHIYALFIINLGWVLFRSENLIQAGKYVACMFGLRGNAFWSNYTFMFVKENAVIFIAAVILSMPIAKKVNKLVYDKVPGYKILNGVYPIAVLGVFFVCISYLIKGTYNPFIYLKF | failed
8 | LVKETACAVVDKLKSGEVTPIEVLDVLEERIAEVDGAINALPTLCFDRARGHAAELMKKPPAERGLLAGLPVPIKDLTAVAGVLTTQGSPIYKDNVPARSDLMVEHLEGNGGVVYAKSNTPEFGAGANTFNEVFGATRNPWDLSRSAAGSSGGAAAALASGTAWLAHGSDMGGSLRNPASFCGIVGLRPSFGRVAHTPAAKIDRNLGVQGPMARNVEDVALLLDAMSGEYAADPLSIPSPATSFLAAARSRQKPLRVAYSPDLGITPVDPEVAAVTRKAAERFAEAGVIVEQAQPDLSEAHECFQALRAFDFAISKADLLRTKRDLLKPEVIWNIEQGLKLSVDDLAKAEAQRVAMTARTIEFFKTYDLLLCPATITAPFPVEQRYLAECNGHTFGNYVEWLGIVYAITLVCCPALSLPCGFTATGLPIGLQMVARPRNEAGLLAGAALLEDILGLKSTTP | failed
9 | DTRWLAFNIQRAVFSDRRVREAITLAFDFEWMNKALFYNAWSRTNSYFQNTEYAARNYPDAAELVLLAPMKKDLPPEVFTQIYQPPVSKGDGYDRDNLLKADKLLNEAGWVLKGQQRVNATTGQPLSFELLLPASSNSQWVLPFQHSLQRLGINMDIRKVDNSQITNRMRNRDYDMMPRLWRAMPWPSSDLQISWSSEYINSTYNAPGVQSPVIDSLINQIIAAQGNKEKLLPLGRALDRVLTWNYYMLPMWYMA | failed
10 | MGTTEKSGIKEIIIQGLTRAGKPFRPSDWVDRMCSTYASFGADRKLRYSPYLKPRVIEGVRCLAVDLKLKDTNPEGFNQLMHFATENQLNILDAEGNSIDAAQVTEI | not failed
11 | MAPKDITFVERCYKYIDMNKNNWSPYTVTSTKSWVKNYIEPFFKNLKLTEVNPSSVQAFVNYNFNNSTFTSAKVRYSFLSSVIREAYRLREIQENSCDFIKLPLEHHHHHH | not failed
12 | MLVGSQLIEIVIDSLRYENLKEILDEMFRDEVQKLKYFLEDVKEEDEELYNKIVDALKLFKENYEIEDIKIPKKIRVFLVKNNILFLNPQKGSLKPQSYLVWNAIKMLL | failed
13 | MLKFPLCCSELSLEPKILAFESQLVSGRRDTIKVSAGKIGNFSLGSIFKSCETCGAKGAIECPGCKGTGKNKKNGNMFERWKCFDCQGFGMKSCPKCGKGGLTPEQRGER | failed
14 | MTYQKIIDKINQQISQHVYLGASLALYDGQWQEFYLGETIPHHKTKAGLVYDLASVSKVVGVGTVIIFLLQANHLKLDEPLQAYYPNFHDSSVTIRQLLTHTSGIDPFIPNRNKLDFAALKQAINHIEVTKTKSFHYTDLNFILLGFLLEEFYDQSLDRIIKEHVLKPFGMEKTSFGPVKRAVPTGKTIPIGRVHDPKAQVLGIHTGSAGLFSNLEDLKCFVNHYLSDAFAKPLTQDFAYADKTRSLAWDLTGDWLFHTGYTGTFILLNIKKQSAAIFLSNRTYEKDERSQWILDRNDLIEVIKAALKKVSDSNCD | failed
15 | MEQGAATADKEDFNARGKPTLFQLSFPLLLHSLLSFFVNLADTAIISAYSAEAAAAVAVAKQVMMIAFELSGLVGIGAVIVISRHLGRGEVEAARQVVAVALLTNTLVGLALGLSLMVAGPLVLEQLAGSTSLNDEAGLYLNIVAVGMVFNGFIAAGLACLRAFGHSRLILAFGVGVSAFYLLAEWVLILGVGPLPGMGVKGAALGTFSIRVMTTAILTPVLMWKLGLRFSFSDTVARFATARRMIAIALPSVTDYIAYSFYQIILLGLVARFGVEAVLGRTYTMLAMAFLIVVVMAISQSNEVLIGYRFGERRLEAATSQALRSASLAAAATTSIATLIWLASVPYIRLFTDNPAVIELCGSLLFLTIFIQPGFAFNTILFQSLRAVGDVRWPVFVSLTVTWGLGLSTAWFFCLFLNLGVTGVWLSLIIEETVKGSLFLHRWLSRGVRHEAG | failed
16 | MENPDSAFLLFRNAPRLPLATMHTPLCGDSHQPDFAFRKPARDALLRPWNGRNHRCGLQDGREICQGQLPAHQKSYWSDCAALPRLFRAYGGAVVRGFLIVGNKAFTQPFSLNDLPGAGRMDVLCRCTSQALFISHGIRRDVEVYLLLLGPPSPPKSILIKGDEVRRMSPDERNVAGHIKKALAVECGKSWKKVHSGVYVSRKGLEELIEELSEKYSIIYLKEDGVDISNAQLPPNPLFVIGDHEGLTEEQEKVVERYAALKLSLSPLSLLAEQCVVIAHHHLDRLQF | failed
17 | MRAAGRDRAERRMPHTWSFDYFYSLPFWAALLAVAAVVRLAGGSPVLRGLALLATSNALLLAIPGFSAADLALVWAVSGVALASARTLSRSAPGSSRARRVVVVGSVVAILAFLALFKYRFLQGLLLGPFAQVLAPRASSGVVNPLVLVGVSYFSFKAIHVVVETYRGTLGRVEALAFLNYMTFFPAFISGPINRFGDFSEQLASASPALGADLRAGGERIVHGLFKKVVLVPLVMPYLLTNQARPLDQATLLDVATGLYAYALYFFFDFAGYTDLAIGGARIIGIRLPENFRQPFFQKNIRDLWTNWHMTLTSWLVDYVYWPTVRALRNLEYLRTRPVLLSVIGMNVTFVSCGIWHGEAPHFVLWGAYHGLGISVLNVYQRQKKRIRAPRIQRWFASRYSRWLGTFATFNFFAAGLALFVLDLGQIRALLRALVG | failed
18 | MSTPTAADRAKALERKNEGNVFVKEKHFLKAIEKYTEAIDLDSTQSIYFSNRAFAHFKVDNFQSALNDCDEAIKLDPKNIKAYHRRALSCMALLEFKKARKDLNVLLKAKPNDPAATKALLTCDRFIREERFRKAIGGAENEAKISLCQTLNLSSFDANADLANYEGPKLEFEQLYDDKNAFKGAKIKNMSQEFISKMVNDLFLKGKYLPKKYVAAIISHADTLFRQEPSMVELENNSTPDVKISVCGDTHGQFYDVLNLFRKFGKVGPKHTYLFNGDFVDRGSWSCEVALLFYCLKILHPNNFFLNRGNHESDNMNKIYGFEDECKYKYSQRIFNMFAQSFESLPLATLINNDYLVMHGGLPSDPSATLSDFKNIDRFAQPPRDGAFMELLWADPQEANGMGPSQRGLGHAFGPDITDRFLRNNKLRKIFRSHELRMGGVQFEQKGKLMTVFSAPNYCDSQGNLGGVIHVVPGHGILQAGRNDDQNLIIETFEAVEHPDIKPMAYSNGGFGL | not failed
19 | MRYLADHDDLTGLHNRRALLQHLDQRLAPGQPGPVAALFLDLDRLKAINDYLGHAAGDQFIHVFAQRIGDALVGESLIARLGGDEFVLIPASPMSADAAQPLAERLRDQLKDHVAIGGEVLTRTVSIGVASGTPGQHTPSDLLRRADQAALAAKHAGGDSVAIFTLEHHHHHH | failed
20 | MIKLSSITAHILDIWHRRNSRSYIAHLRSLGIRIGDGCIFRDPLTTRIDVSRPALVSIGSNVDMNTYFQILTHDWASFVFRNKYHDFVNSSGRVEIGSNIYIGTNVIVLRGVTIGDNCVIGAGSVVTHDIPANSVAVGAPCRVVCSLDEYYQKRKVKGLQEAVEHVKAFQKNFGRDPLPHELYEEFIYFVDASNVEEYERQGVPVRSQLSIAYGDWLSTHKAKFSSYDDFIQYVNQKMNETAES | failed
21 | MGHHHHHHSHSEVAIKIDFDFAPGSFDDQYQGCSKQVMEKLTQGDYFTKDIEAQKNYFRMWQKAHLAWLNQGKVLPQNMTTTHAVAILFYTLNSNVHSDFTRAMASVARTPQQYERSFHFKYLHYYLTSAIQLLRKDSIMENGTLCYEVHYRTKDVHFNAYTGATIRFGQFLSTSLLKEEAQEFGNQTLFTIFTCLGAPVQYFSLKKEVLIPPYELFKVINMSYHPRGNWLQLRSTGNLSTYNCQLLKASSKKC | failed
22 | AIAAEMKTYSHRTMPSACTLVMCSSVESGLPGRDGRDGREGPRGEKGDPGLPGAAGQAGMPGQAGPVGPKGDNGSVGEPGPKGDTGPS | failed
23 | MTAFRCLITGLTWLAKPGIRRYVWIPLAVNLVLYGLGLWLGIRYFSAFLNWMLPGWLDFLRWLLWPVFAVGFFTVMYFTFSVLANIIGSPFYGVLAERTAELATGRRIRPAGVAGEVGMWSALRSEFRRLAYLGLRIVPLAALFLVPVVNLVAPVLWMLFNAWFMALEYTAYPLEARGYDFDHQRSLLGRFRLGAATFGGTVLLAQTIPLLNVLAAPAAVIGATLYLLELPVEE | failed
24 | MSIDVHPNNYAYQTNEPYKNFEAEDKLIGHLQDFVDGHQEDVKRIGSKMSEMKAKFEEKFDDLTNRLENMEGALVEINNALLNHQDDIQDQYTRIVNVGLVVDTVESHLDWKIEELEKKLNNSNEFSE | not failed
